The values below come from article PMC6078440, “Structural and functional analysis of Dickkopf 4 (Dkk4): New insights into Dkk evolution and regulation of Wnt signaling by Dkk and Kremen proteins” (The Journal of Biological Chemistry, 2018).

The labels stand for the following.
T1: Kremen1 extracellular domain Fc fusion protein (human, UniProt Q96MU8 21-392)
T1 construct: Kremen1 (Krm1), human, extracellular domain (kringle, WSC and CUB domains); also called Krm1 ECD-Fc; Krm1 ECD; source: expressed, in cell culture medium (supernatants); host in the supporting material
T1 sequence (looked up): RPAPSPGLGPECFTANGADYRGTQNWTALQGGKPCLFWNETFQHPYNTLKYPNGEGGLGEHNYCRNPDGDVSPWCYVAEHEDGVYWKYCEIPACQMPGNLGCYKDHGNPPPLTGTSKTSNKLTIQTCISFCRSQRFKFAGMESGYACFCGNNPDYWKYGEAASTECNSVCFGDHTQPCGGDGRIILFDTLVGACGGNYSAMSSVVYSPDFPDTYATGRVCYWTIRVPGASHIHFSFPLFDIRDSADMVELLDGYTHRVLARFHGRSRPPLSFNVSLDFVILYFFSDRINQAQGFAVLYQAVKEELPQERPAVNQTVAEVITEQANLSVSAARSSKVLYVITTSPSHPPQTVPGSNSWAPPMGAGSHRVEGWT

T2: Kremen1 extracellular domain Fc fusion protein (human, UniProt Q96MU8 21-392)
T2 chain: T1 sequence (looked up)

T3: LRP6 E1E2-Fc (β-propeller domains 1 and 2 of low-density lipoprotein receptor-related protein 6, Fc fusion) (human)
T3 chain: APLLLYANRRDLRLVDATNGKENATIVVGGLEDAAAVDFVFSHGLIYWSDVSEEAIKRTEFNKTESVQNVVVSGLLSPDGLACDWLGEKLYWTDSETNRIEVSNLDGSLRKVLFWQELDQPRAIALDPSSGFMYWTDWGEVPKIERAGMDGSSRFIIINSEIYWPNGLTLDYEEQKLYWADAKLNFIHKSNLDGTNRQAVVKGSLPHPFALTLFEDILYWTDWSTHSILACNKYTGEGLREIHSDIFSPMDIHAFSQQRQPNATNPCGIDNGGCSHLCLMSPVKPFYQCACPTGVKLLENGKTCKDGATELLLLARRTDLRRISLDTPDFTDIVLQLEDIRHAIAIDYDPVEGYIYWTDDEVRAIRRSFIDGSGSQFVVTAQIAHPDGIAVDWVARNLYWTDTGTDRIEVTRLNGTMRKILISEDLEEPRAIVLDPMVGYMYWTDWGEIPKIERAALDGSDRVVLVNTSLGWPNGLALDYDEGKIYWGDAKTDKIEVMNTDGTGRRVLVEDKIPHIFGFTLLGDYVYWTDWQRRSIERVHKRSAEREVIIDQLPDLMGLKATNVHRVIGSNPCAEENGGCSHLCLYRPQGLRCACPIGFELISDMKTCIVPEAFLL

T4: N-terminal region of Dkk4 including CRD1, residues 19-97 (human, UniProt Q9UBT3 19-97)
T4 construct: Dickkopf 4 (Dkk4), human, N-terminal region with the NXI(R/K) motif and CRD1, residues 19-97; residues numbered from the N-terminal methionine; construct details are in the supporting material; also called Dkk4N; isolated Dkk4N region; not shown: His6 (with linker), C-terminal, kept
T4 sequence (looked up): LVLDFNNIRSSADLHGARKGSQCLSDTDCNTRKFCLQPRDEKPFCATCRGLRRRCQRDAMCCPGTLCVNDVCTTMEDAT

B1: full-length mature Dkk2 (Dickkopf 2), residues 38-259, His-tagged (natural protein, human, UniProt Q9UBU2 38-259, looked up)
chain: IKSSLGGETPGQAANRSAGMYQGLAFGGSKKGKNLGQAYPCSSDKECEVGRYCHSPHQGSSACMVCRRKKKRCHRDGMCCPSTRCNNGICIPVTESILTPHIPALDGTRHRDRNHGHYSNHDLGWQNLGRPHTKMSHIKGHEGDPCLRSSDCIEGFCCARHFWTKICKPVLHQGEVCTKQRKKGSHGLEIFQRCDCAKGLSCKVWKDATYSSKARLHVCQKI
notes: also called Dkk2FL
B2: isolated Kremen1 extracellular domain, Fc tag removed (domain or fragment, human, UniProt Q96MU8 21-392, looked up)
chain: T1 sequence (looked up)
notes: Kremen1 (Krm1), human, extracellular domain (kringle, WSC and CUB domains); Eluted in SEC as monomer (35 kDa) and noncovalent dimer (70 kDa); also called Krm1 ECD; isolated Krm1 ECD; source: prepared from Krm1 ECD-Fc by removal of the Fc tag, size-exclusion chromatography; host in the supporting material
B3: full-length mature Dkk4 (Dickkopf 4), residues 19-224, His-tagged (natural protein, human, UniProt Q9UBT3 19-224, looked up)
chain: LVLDFNNIRSSADLHGARKGSQCLSDTDCNTRKFCLQPRDEKPFCATCRGLRRRCQRDAMCCPGTLCVNDVCTTMEDATPILERQLDEQDGTHAEGTTGHPVQENQPKRKPSIKKSQGRKGQEGESCLRTFDCGPGLCCARHFWTKICKPVLLEGQVCSRRGHKDTAQAPEIFQRCDCGPGLLCRSQLTSNRQHARLRVCQKIEKL
modifications: uniformly 15N/13C/2H-labelled in the NMR experiments
notes: residues numbered from the N-terminal methionine; also called Dkk4FL
B4: N-terminal region of Dkk4 including CRD1, residues 19-97 (domain or fragment)
chain: T4 sequence (looked up)
B5: LRP6 E1E2-Fc (β-propeller domains 1 and 2 of low-density lipoprotein receptor-related protein 6, Fc fusion) (Fc fusion)
chain: T3 chain

Several values for one entry are separate records, joined by “and”; a condition that tells them apart may be missing. Equal values may be shown once.

The target of data set [1] is T1, Kremen1 extracellular domain Fc fusion …. Briefly: BLI; Krm1 ECD-Fc loaded from supernatants on AHC biosensors; Dkk2FL or Dkk4FL 1-1000 nM, Dkk4N 0.1-100 μM; 25 mM Na2HPO4, 100 mM NaCl, 0.05% Triton X-100, pH 6.5; steady-state fit to a one-site model. As to conditions: one partner purified.
Data set [2] deals with the molecule itself. Description: SEC; Superdex 75 10/300 GL, 3 μM Krm1 ECD in 50 mM Na2HPO4, 100 mM NaCl, pH 7.5; apparent masses from a calibration with globular standards; monomer and dimer.
In data set [3] the target is T2, Kremen1 extracellular domain Fc fusion …. Description: BLI; pH 6.5.
For data set [4], the target named is T3, LRP6 E1E2-Fc (β-propeller domains 1 and …). Briefly: BLI; pH 7.5.
Data set [5] has the same target. Briefly: BLI; pH 6.5.
In data set [6] the target is T4, N-terminal region of Dkk4 including …. Briefly: BLI; LRP6 E1E2-Fc (200 nM) loaded on AHC biosensors; Dkk4N 0.1-100 μM; 25 mM Na2HPO4, 100 mM NaCl, 0.05% Triton X-100, pH 6.5 or 7.5 (not told which for the printed KD); later experiments with 0.1% BSA; steady-state fit to a one-site model. As to conditions: both partners purified.
Data set [7] concerns the target B3. Description: BLI; LRP6 E1E2-Fc (200 nM) loaded on AHC biosensors; Dkk4FL 1-1000 nM; 25 mM Na2HPO4, 100 mM NaCl, 0.05% Triton X-100, pH 6.5; steady-state fit to a one-site model. As to conditions: both partners purified.

In turn, B1 gave a Kd in data set [1] of about 12 nM.

Regarding B2, the “stoichiometry N” value in data set [2] was determined as 2.

Consider B3, for which the dissociation constant (Kd) was 93 to 130 nM in data set [1]; 93.1 nM in data set [3]; 48.7 nM and 55.6 nM in data set [4].

As for B4, in data set [5], the Kd was 11100 nM.

Regarding B5, the dissociation constant Kd is 11000 to 30000 nM in data set [6] and 64 to 77 nM in data set [7].
